Measured values taken from the RNAGym collection of RNA variant scans (doi:10.1073/pnas.2313332121).

B1: TPR t1 (parent)
chain: GACCAAUCUGCCCUCAGAGCUCGAGAACAUCUUCGGAUGCAGAGGAGGCAGGCUUCGGUGGCGCGAUAGCGCCAACGUCCUCAACCUCCAAUGCAUCCCACCACAUGAUGAUGCCUGAAGAGCCUUGGUUUUUUG

Variants of: B1
Assay: polymerase ribozyme fitness, log enrichment relative to wild type (log ratio); higher = more active; in vitro selection for triplet polymerase activity
Summary of the method: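 Both subunits of a heterodimeric triplet polymerase ribozyme were given their own mutant library, built by PCR and transcribed. Each library was annealed with a biotinylated primer, the partner subunit and triplets, incubated frozen at −7 °C, and its extended constructs gel-excised, captured on streptavidin beads and amplified by RT-PCR, all in one round done in triplicate. Fitness is the logarithm of genotype enrichment relative to wild-type enrichment, with replicates averaged by inverse-variance weighting. That logarithm is base 2, and Illumina-sequenced genotypes needed ≥10 input reads and ≥1 read per output.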

Variant	polymerase ribozyme fitness (log ratio)
GACCAAUCUGCCCUCAGAGCUCGAGAACAUCUUCGGAUGCAGAGGAGGCAGGCUUGGGUGGCGCGAUAGCGCCAACGUCCUCAACCUCCAAUGCAUCCCACCACAUGAUGAUGCCUGAAGAACCUUGGUUUUUUG [C56G G122A]	-1.46
GACCAAUCUGCCCUCAGAGCUCGAGAACAUCUUCGGAUGCAGAGGAGGCAGGCUUGGGUGGCGCGAUAUCGCCAACGUCCUUAACCUCCAAUGCUUCCCACCACAUGAUGAUGCCUGAAGAGCCUUUGUUUUUUG [C56G G69U C82U A95U G127U]	-3.08
GACCAAUCUGCCCUCAGAGCUCGAGAACAUCUUCGGAUGCAGAGGAGGCAGGCUUGUGUGGCGCGAUAGCGCCAACGUCCUCAACCUCCAAUGCAUCCCAGCACAUGAUGCUGCCUGAAGAGCCUUGGUUUUUUG [C56G G57U C101G A111C]	-1.77
GACCAAUCUGCCCUCAGAGCUCGAGAACAUCUUCGGAUGCAGAGGAGGCAGGCUUGGGUGGCGCGAUAGCGCCAACGUCCUCAACCUCCAAUGCAGCCCACCACAUGAUGAUGCCUGAAGAGCCUUGGUUUUUUG [C56G U96G]	-1.51
GACCAAUCUGCCCUCAGAGCUCGAGAACAUCUUCGGAUGCAGAGGAGGCAGGCUUGGGUGGCGCGAUAGCGCCAACGUCCUCAACCUCCAAUGCAUCCCACCACAUGAUGACGCCUGAAGAGCCUUGGUUUUUUG [C56G U112C]	1.26
GACCAAUCUGCCCUCAGAGCUCGAGAACAUCUUCGGAUGCAGAGGAGGCAGGCUUGGAUGGCGCGAUAGCGCCAACAUCCUCAACCUCCAAUGCAUCCCACCACAUGAUGAUGCCUGAAGAGCCUUGGUUUUUUG [C56G G58A G77A]	0.427
GACCAAUCUGCCCUCAGAGCUCGAGAACAUCUUCGGAUGCAGAGGAGGCAGGCUUGGGUGGCGCGAUAGCGCCAACGUCCUCAACCUCCAACGCAUCCCACCACAUGAUGAUGCCUGAAGAGCCUUGGUUUUUUG [C56G U92C]	-1.23
GACCAAUCUGCCCUCAGAGCUCGAGAACAUCUUCGGAUGCAGAGGAGGCAGGCUUGGGUGGCGCGAUAGCGCCAACGUCCUCAACCUCCAAUACGUCCCACCACAUGAUGAUACCUGAACAGCCUUGGUUUUUUG [C56G G93A A95G G113A G120C]	-3.38
GACCAAUCUGCCCUCAGAGCUCGAGAACAUCUUCGGAUGCAGAGGAGGCAGGCUUGGGUGGCACGAUAGCGCCAACGUCCUCAACCUCCAAUGCAUCCCACCACAUGAUGAUGCCUGAAGAGCCUUGGUUUUUUC [C56G G63A G135C]	-2.89
GACCAAUCUGCCCUCAGAGCUCGAGAACAUCUUCGGAUGCAGAGGAGGCAGGCUUGGGUGGCGCGAUAGCGCCAACGUCCUCAACCUCCAAUGCAUCCCACCACAUGAUGAUGCCCGAAGAGCCUUGGUUUUUUG [C56G U116C]	-0.924
GACCAAUCUGCCCUCAGAGCUCGAGAACAUCUUCGGAUGCAGAGGAGGCAGGCUUGGGUGCCGCGAUAGCGCCAACGUCCUCAACCUCCAAUGCGUCCCACCACAUGAUGUUGCCUGAAGAGCCUUGGUUUUUUG [C56G G61C A95G A111U]	-6.34
GACCAAUCUGCCCUCAGAGCUCGAGAACAUCUUCGGAUGCAGAGGAGGCAGGCUUGGGUGGCGCGAUAGCGCCAACGUCCACAACCUCCAAUGCAUCCCACCACAUGAUGAUGCCUGAAGAGCCAUGGUUUUUUG [C56G U81A U125A]	-1.81
GACCAAUCUGCCCUCAGAGCUCGAGAACAUCUUCGGAUGCAGAGGAGGCAGGCUUGGGUGGCGCGAUAGCGCCAACGUCCUCAACCUCCAAUGCAUCCCACCACAUGAUGAUGCCUGAAGAGCCUUGGUUUUUUA [C56G G135A]	-1.39
GACCAAUCUGCCCUCAGAGCUCGAGAACAUCUUCGGAUGCAGAGGAGGCAGGCUUGGGUGGCGCGAUAGCGCCAACGUCCUCAACCUCCAAUGCAUCCCACCACAUGAUGAUGCUUGAAGAGCCUUGGUUUUUUC [C56G C115U G135C]	-1.67
GACCAAUCUGCCCUCAGAGCUCGAGAACAUCUUCGGAUGCAGAGGAGGCAGGCUUGGGUGCCGCGAUAGCGCCAACGUCCUCAACCUCCAAUGCAUCCCACCACAUGAUGAUGCCUGAAGAGCCUUGGUUUUUUG [C56G G61C]	-5.99
GACCAAUCUGCCCUCAGAGCUCGAGAACAUCUUCGGAUGCAGAGGAGGCAGGCUUGGGUGGCGCGAUAGCGCCAACGUCCUCAACCUCCAAUGCAUCCCACCACAAGAUGAUGCCUGAAGAGCCUUGGUUUUUUG [C56G U106A]	-0.921
GACCAAUCUGCCCUCAGAGCUCGAGAACAUCUUCGGAUGCAGAGGAGGCAGGCUUGGGUGGCUCGAUAGCGCCAACGUCCUCAACCUCCAAUGCAUCCCACCACAUGAUGAUGCCUGAAGAGCCUUGGUUUUUUG [C56G G63U]	-4.87
GACCAAUCUGCCCUCAGAGCUCGAGAACAUCUUCGGAUGCAGAGGAGGCAGGCUUGGGUGGCGCGAUAGCGCCAACGACCUCAACCUCCAAUGCAUCCCACCACAUGAUGAUGCCUAAAGAGCCUUGGUUUUUUG [C56G U78A G117A]	-2.04
GACCAAUCUGCCCUCAGAGCUCGAGAACAUCUUCGGAUGCAGAGGAGGCAGGCUUGGGUGGCGCGAUAGCGCCAACGUCCUCAACCUCCAAUUCAUCCCACCACAUGAUGAUGCCUGAAGAGCCUUGGUUUUUUG [C56G G93U]	-2.19
GACCAAUCUGCCCUCAGAGCUCGAGAACAUCUUCGGAUGCAGAGGAGGCAGGCUUGGGUGGCGCGAUAGCGCCAACGUCCUCAACCUCCAAUGCAUCUCACCACAUGAUAAUGCCUGAAGAGCCUUGGUUUUUUG [C56G C98U G110A]	-1.9
GACCAAUCUGCCCUCAGAGCUCGAGAACAUCUUCGGAUGCAGAGGAGGCAGGCUUGCAUGGCGCGAUAGCGCCAACGUCCUCAACCUCCAAUGCAUCCCACCAAAUGAUGAUGCCUGAAGAGCCUUGGUUUUUUG [C56G G57C G58A C104A]	-3.33
